US12486322 (ANNEXON, dated 2025)

Assays:
human C1q [1] = target: T1, human C1q (human, UniProt P02745 23-245; P02746 28-253; P02747 29-245); assay: direct ELISA, purified human C1q coated on the plate, luminescence
T1 construct: it describes C1q as having six globular heads; also called hC1q; human serum derived C1q
Method: Next day, plates are washed with dPBS thrice and blocked with 3% BSA/PBS for 1 hour at room temperature (RT). […] Following incubation for 1 hour at RT, plates are washed 4× with dPBS 0.05% Tween. Then, alkaline phosphatase (AP) conjugated secondary antibodies to human kappa (Abcam) and human FC (Jackson Immunoresearch), respectively at 2000-4000-fold dilution. After an additional 1 hour of incubation at RT, plates are washed 4× with dPBS 0.05% Tween and luminescence signal was developed with AP substrate (#T2214, Thermo Scientific). Luminescence counts were measured using a luminometer (Spectramax i3×, Molecular Devices). Raw counts were fit using a 4-parameter logistic to derive $EC50$ for human C1q binding (Prism, GraphPad).

[2] = target: T2, Cynomolgus serum derived C1q (cynomolgus monkey, UniProt A0A2K5WJV6 23-243; A0A2K5WNK0 28-253); assay: sandwich ELISA, serum C1q captured by JL-1; cynomolgus against human serum
T2 construct: also called C1q derived from monkey serum; C1q in monkey serum
Text: (§1) Evaluation of binding to serum derived C1q: We compared binding of anti-C1q molecules to C1q from monkey and human serum. Binding to serum derived C1q was preformed using a sandwich ELISA. In this assay, a monoclonal antibody specific to the collagen tail of C1q (JL-1, Abcam) was used to capture the C1q, and then detected using the anti-C1q antibodies, which bind to the globular head groups of C1q. […] Next day, the plates were washed with dPBS (pH 7.4) and blocked with dPBS buffer containing 3% bovine serum albumin (BSA). Diluted serum samples were added to the plates and incubated overnight shaking at 4° C. Human and monkey serum samples were used at 1:2000 dilution in assay buffer, dPBS containing 0.3% BSA and 0.1% tween. Following overnight incubation at 4 C, plates were warmed to room temperature for 2 hours. […] Plates were washed with dPBS with 0.05% tween and then incubated with alkaline phosphatase conjugated anti-human Fc or Kappa antibodies at 1:3000 dilution in assay buffer. Plates were then washed, and detected using an enzyme substrate (T2214, Thermo) and read in a plate reader. Counts were background subtracted and normalized to signal at highest concentration, % normalized values were plotted as a function of concentration for each of the antibodies. Data were fit using a 4-parameter logistic fit to derive $EC50$ of binding and plotted using GraphPad Prism.

[3] = target: T2, Cynomolgus serum derived C1q; assay: sandwich ELISA, serum C1q captured by JL-1; the high end is tied to cynomolgus serum by Table 1
Text: as §1

[4] = target: T2, Cynomolgus serum derived C1q; assay: cell-based or functional assay
human C1q [5] = target: T1, human C1q; assay: cell-based or functional assay
[6] = target: T2, Cynomolgus serum derived C1q; assay: sandwich ELISA, C1q from cynomolgus serum captured by JL-1
Text: as §1

human C1q [7] = target: T1, human C1q; assay: sandwich ELISA, serum C1q captured by JL-1; the low end is tied to human serum by Table 1
Text: as §1

human C1q [8] = target: T1, human C1q; assay: cell-based or functional assay; remark: listed apart in the source
human C1q [9] = target: T1, human C1q; assay: sandwich ELISA, C1q from human serum captured by JL-1
Text: as §1

[10] = target: T2, Cynomolgus serum derived C1q; assay: sandwich ELISA, serum C1q captured by JL-1; the high end is tied to the single-arm antibody by Table 1 (2.1)
Text: as §1

T1 sequence (P02745 23-245 limits assumed, chain 1 of 3): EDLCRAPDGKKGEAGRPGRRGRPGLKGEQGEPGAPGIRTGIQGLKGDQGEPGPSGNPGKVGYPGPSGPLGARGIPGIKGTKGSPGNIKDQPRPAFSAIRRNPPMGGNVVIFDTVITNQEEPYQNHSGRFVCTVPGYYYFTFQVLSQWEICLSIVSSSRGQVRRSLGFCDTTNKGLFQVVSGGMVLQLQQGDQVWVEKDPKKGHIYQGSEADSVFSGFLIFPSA
T1 sequence (P02746 28-253 limits assumed, chain 2 of 3): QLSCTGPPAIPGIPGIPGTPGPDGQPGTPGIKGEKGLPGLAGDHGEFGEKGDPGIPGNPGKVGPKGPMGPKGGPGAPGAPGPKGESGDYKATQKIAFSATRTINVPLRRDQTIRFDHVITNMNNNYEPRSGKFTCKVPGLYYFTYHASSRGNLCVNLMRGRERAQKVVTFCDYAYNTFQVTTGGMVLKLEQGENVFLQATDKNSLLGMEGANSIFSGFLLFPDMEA
T1 sequence (P02747 29-245 limits assumed, chain 3 of 3): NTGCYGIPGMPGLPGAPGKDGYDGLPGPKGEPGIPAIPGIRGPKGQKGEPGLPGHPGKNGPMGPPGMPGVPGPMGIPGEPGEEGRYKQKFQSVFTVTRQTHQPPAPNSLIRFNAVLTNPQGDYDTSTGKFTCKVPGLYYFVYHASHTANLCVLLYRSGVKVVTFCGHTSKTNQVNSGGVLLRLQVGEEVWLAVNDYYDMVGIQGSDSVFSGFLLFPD

B1: anti-C1q single-arm antibody (with IgG4 and Fcγ receptor binding site mutation) (antibody)
light: DVQITQSPSSLSASLGERATINCRASKSINKYLAWYQQKPGKAPKLLIYSGSTLQSGIPARFSGSGSGTDFTLTISSLEPEDFAMYYCQQHNEYPLTFGQGTKLEIKRTVAAPSVFIFPPSDEQLKSGTASVVCLLNNFYPREAKVQWKVDNALQSGNSQESVTEQDSKDSTYSLSSTLTLSKADYEKHKVYACEVTHQGLSSPVTKSFNRGEC
heavy: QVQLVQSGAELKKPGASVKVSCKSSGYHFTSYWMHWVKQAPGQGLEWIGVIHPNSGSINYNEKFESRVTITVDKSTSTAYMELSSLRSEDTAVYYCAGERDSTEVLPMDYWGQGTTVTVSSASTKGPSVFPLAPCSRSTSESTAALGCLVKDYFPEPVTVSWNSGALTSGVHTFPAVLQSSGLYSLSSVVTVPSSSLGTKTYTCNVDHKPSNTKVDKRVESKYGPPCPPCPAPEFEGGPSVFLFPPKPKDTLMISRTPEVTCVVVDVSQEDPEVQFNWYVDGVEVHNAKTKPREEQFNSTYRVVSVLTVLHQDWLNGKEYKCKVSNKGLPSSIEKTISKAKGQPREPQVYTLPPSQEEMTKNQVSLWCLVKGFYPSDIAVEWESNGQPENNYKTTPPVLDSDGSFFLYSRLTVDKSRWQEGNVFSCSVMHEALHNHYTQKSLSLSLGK
chain: ESKYGPPCPPCPAPEFEGGPSVFLFPPKPKDTLMISRTPEVTCVVVDVSQEDPEVQFNWYVDGVEVHNAKTKPREEQFNSTYRVVSVLTVLHQDWLNGKEYKCKVSNKGLPSSIEKTISKAKGQPREPQVYTLPPSQEEMTKNQVSLSCAVKGFYPSDIAVEWESNGQPENNYKTTPPVLDSDGSFFLVSRLTVDKSRWQEGNVFSCSVMHEALHNHYTQKSLSLSLGK
notes: The third chain is the N-terminally truncated heavy chain (hinge-CH2-CH3, hole mutations); also called single-arm molecule; anti-C1q single-arm antibody (monovalent)
EC50 (human C1q [1]): 0.05 nM
Ratio Cyno:Human (binding EC50) [2]: 2.1
EC50 [3]: 150 to 400 nM
IC50 for hemolysis inhibition (nM), Cyno serum [4]: 5.5 nM
IC50 for hemolysis inhibition, Ratio Cyno:Human [4]: 0.6
IC50 for hemolysis inhibition (nM), Human serum (human C1q [5]): 9.9 nM
EC50 [6]: 378 nM
EC50 (human C1q [7]): 150 to 400 nM
IC50 for inhibition of serum hemolysis (human C1q [8]): 3 to 10 nM
EC50 (human C1q [9]): 178 nM
fold weaker binding EC50 in cynomolgus serum compared to human serum [10]: 1 to 2 fold
